{"source": "paper PMC9675734", "about": "“Phosphorylation disrupts long-distance electron transport in cytochrome c” (Nature Communications, 2022)", "binders": {"B1": {"name": "Homo sapiens WT cytochrome c (natural protein)", "chain": "not shown", "notes": "cytochrome c, human, CYCS gene in plasmid pBTR1-WT; Hemeprotein (heme c attached by the co-expressed heme lyase); Used as analyte in SPR; also called Cc; WT Cc; source: E. coli BL21 (DE3), pBTR1-WT with yeast Cc heme lyase (CYC3), purified (Nuvia S cation exchange)"}}, "molecular_target": "T1, soluble domain of Arabidopsis thaliana cytochrome c1 (Arabidopsis thaliana, UniProt Q9FKS5 64-265)", "T1 construct": "Hemeprotein; Immobilised on Au(111) through Cys10 (AFM, EC-STM) or by amine coupling on the biochip (SPR); also called Cc1; plant cytochrome Cc1; source: E. coli BL21 (DE3), pET-Cc1 with pEC86 (ccmABCDEFGH), purified (Nuvia Q anion exchange, ENrich SEC 70)", "T1 sequence (looked up)": "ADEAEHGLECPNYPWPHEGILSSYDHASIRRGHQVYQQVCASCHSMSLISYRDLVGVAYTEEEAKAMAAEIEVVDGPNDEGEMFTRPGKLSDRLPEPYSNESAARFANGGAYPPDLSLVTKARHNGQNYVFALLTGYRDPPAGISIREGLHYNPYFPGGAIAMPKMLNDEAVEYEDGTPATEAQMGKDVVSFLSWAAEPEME", "test": "SPR; SPRi; Cc1 immobilised by direct amine coupling on a CS SPRi-Biochip (10 and 15 uM drops); WT or Y48pCMF Cc flowed at 2.5 to 10 uM, 50 uL/min; 298 K; 10 mM sodium phosphate buffer pH 6.5; reference spots with rabbit serum albumin subtracted; 1:1 binding model", "conditions": "both partners purified"}
{"binder": "B1", "values": [{"measurement": "Kd", "value": 527, "unit": "nM"}, {"measurement": "koff", "value": 0.00318, "unit": "s⁻¹"}, {"measurement": "kon", "value": 6540, "unit": "M⁻¹ s⁻¹"}]}
